Experimental data from article PMC7010359, “High-resolution crystal structures of Escherichia coli FtsZ bound to GDP and GTP” (Acta Crystallographica. Section F, Structural Biology …, 2020).

Target: the molecule itself
Assay: crystal structure; hanging-drop vapor diffusion, 298 K, protein at 37 mg/ml with 1 mM GDP (1.35 Å) or 30 mg/ml with 1 mM GTP (1.40 Å); space group P2(1), one molecule in the asymmetric unit; filament generated by crystal packing

B1: E. coli FtsZ(L178E), truncated to the globular domain (residues 10-316) (domain or fragment, E. coli K-12, UniProt P0A9A6 10-316, looked up)
chain: DAVIKVIGVGGGGGNAVEHMVRERIEGVEFFAVNTDAQALRKTAVGQTIQIGSGITKGLGAGANPEVGRNAADEDRDALRAALEGADMVFIAAGMGGGTGTGAAPVVAEVAKDLGILTVAVVTKPFNFEGKKRMAFAEQGITELSKHVDSLITIPNDKLLKVLGRGISELDAFGAANDVLKGAVQGIAELITRPGLMNVDFADVRTVMSEMGYAMMGSGVASGEDRAEEAAEMAISSPLLEDIDLSGARGVLVNITAGFDLRLDEFETVGNTIRAFASDNATVVIGTSLDPDMNDELRVTVVATGIG
notes: FtsZ, E. coli K-12, globular domain, residues 10-316, with the mutation L178E; expressed from pET-11; Crystallized with 1 mM GDP (PDB 6umk) or 1 mM GTP (PDB 6unx); No tag is mentioned; One molecule in the asymmetric unit; the protofilament arises from crystal packing; also called EcFtsZ(L178E); source: E. coli BL21(DE3), purified (ammonium sulfate precipitation, Resource Q anion exchange)
- binding result: binds
